Data from article PMC4431850 (PLoS ONE, 2015).

Experiments:
[1] = target: the molecule itself; test: SEC-MALS; light scattering experiments, data not shown; oligomeric state
[2] = target: T1, Cul3^NTD, N-terminal region (residues 20-381) of cullin 3 (UniProt Q13618 20-381); test: SEC; BTB domain mixed with Cul3^NTD at 4°C in 20 mM NaP, 200 mM NaCl, 2 mM DTT pH 7.5; Superdex 200 10/30; SDS-PAGE of the peaks; conditions: both partners purified
T1 construct: cullin 3, N-terminal region, residues 20-381; Printed Mw 42 kDa; source: expressed and purified according to Balasco et al. [19]; recombinant, bacterial system
T1 sequence (Q13618 20-381): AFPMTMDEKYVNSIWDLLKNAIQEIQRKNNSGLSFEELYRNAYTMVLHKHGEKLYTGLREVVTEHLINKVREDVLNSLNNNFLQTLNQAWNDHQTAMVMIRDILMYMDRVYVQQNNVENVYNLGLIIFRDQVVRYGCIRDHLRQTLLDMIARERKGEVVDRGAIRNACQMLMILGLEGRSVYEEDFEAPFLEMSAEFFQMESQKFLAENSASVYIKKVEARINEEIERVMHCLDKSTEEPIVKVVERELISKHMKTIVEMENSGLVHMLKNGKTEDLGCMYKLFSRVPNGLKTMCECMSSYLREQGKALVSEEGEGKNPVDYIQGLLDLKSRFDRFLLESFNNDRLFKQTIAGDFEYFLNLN

[3] = target: T1, Cul3^NTD, N-terminal region (residues …); test: ITC; BTB domain (55 μM as tetramer) titrated into Cul3^NTD (25 μM); 22°C; 20 mM NaP, 200 mM NaCl, 2 mM DTT pH 7.5; single-binding site model; conditions: both partners purified
[4] = target: the molecule itself; test: SEC-MALS; Superdex200 10/30 coupled to light scattering (miniDAWN TREOS) and refractive index detectors; 20 mM sodium phosphate pH 7.5, 2 mM DTT; oligomeric state

Row | Binder | stoichiometry N [1] | stoichiometry N [4] | further results
1 | BTB domain of KCTD6 (KCTD6^BTB) (domain or fragment, UniProt Q8NC69 10-110, looked up, KCTD6, BTB domain, residues 10-110 of UniProt Q8NC69; Tetramer (~46 kDa); source: E. coli BL21(DE3), purified (protocol of Pirone et al. [23])) MTDPVTLNVGGHLYTTSLTTLTRYPDSMLGAMFGGDFPTARDPQGNYFIDRDGPLFRYVLNFLRTSELTLPLDFKEFDLLRKEADFYQIEPLIQCLNDPKP | 4 |  | 
2 | BTB domain of KCTD11 (KCTD11^BTB) (domain or fragment, UniProt Q693B1-2 15-116, looked up, KCTD11, BTB domain, residues 15-116 of the long form of the protein (isoform 2, UniProt Q693B1-2); numbers count on: the long form (isoform 2); Tetramer (~46 kDa); source: E. coli BL21(DE3), purified (procedure of Correale et al. [5])) GPVTLNVGGTLYSTTLETLTRFPDSMLGAMFRAGTPMPPNLNSQGGGHYFIDRDGKAFRHILNFLRLGRLDLPRGYGETALLRAEADFYQIRPLLDALRELE | 4 |  | stoichiometry N [2]: 1 BTB chains : Cul3^NTD (4:4); Kd [3]: 25 ± 2 nM; dH [3]: -21 ± 0.1 kcal/mol; stoichiometry N [3]: ~0.25 KCTD tetramers per Cul3^NTD
3 | BTB domain of KCTD12 (KCTD12^BTB) (domain or fragment, UniProt Q96CX2 27-131, looked up, KCTD12, BTB domain, residues 27-131 of UniProt Q96CX2; Tetramer (~46 kDa); source: E. coli BL21(DE3), purified (procedure of Correale et al. [24] and Errington et al. [25])) AEPPLFPDIVELNVGGQVYVTRRCTVVSVPDSLLWRMFTQQQPQELARDSKGRFFLDRDGFLFRYILDYLRDLQLVLPDYFPERSRLQREAEYFELPELVRRLGA | 4 |  | 
4 | BTB domain of KCTD15 (KCTD15^BTB) (domain or fragment, human, UniProt Q96SI1-1 61-157, looked up, KCTD15, human, BTB domain, residues 61-157 of UniProt Q96SI1-1; cloned NdeI/EcoRI into pET28b+; Tetramer by light scattering (47.1 kDa against 47.5 kDa expected); source: E. coli BL21(DE3) pLys-S co-transformed with pREP4 GroESL, purified (Ni-NTA, Superdex200)) DVGGHMYTSSLATLTKYPDSRISRLFNGTEPIVLDSLKQHYFIDRDGEIFRYVLSFLRTSKLLLPDDFKDFSLLYEEARYYQLQPMVRELERWQQEQ |  | 4 | 
5 | chimeric BTB domain CHIM11/12^BTB (KCTD11^BTB with residues 42-63 replaced by residues 61-80 of KCTD12^BTB) (domain or fragment, UniProt Q693B1-2 15-41, looked up, KCTD11 BTB domain (15-116 of the long form, isoform 2) up to the replaced α2β3 loop (42-63); numbers count on: the long form (isoform 2); KCTD12, residues 61-80, predicted α2β3 loop; KCTD11 BTB domain (15-116 of the long form, isoform 2) after the replaced α2β3 loop (42-63); also called chimeric variant of KCTD11; source: E. coli, purified (procedure used for KCTD11 [5])) GPVTLNVGGTLYSTTLETLTRFPDSMLWRMFTQQQPQELARDSKGRFFIDRDGKAFRHILNFLRLGRLDLPRGYGETALLRAEADFYQIRPLLDALRELE |  | 4 | 
